According to patent US20250346665A1 (BEIJING IMMUNOAH PHARMATECH, published 2025):
Where two headings read alike, the source gives them in different places.

Columns and labels:
[1] = target: T1, Human CLDN18.2, NP_001002026.1, claudin-18 isoform 2 [Homo sapiens] (human); experiment: flow cytometry titration on 293T-18.2 cells
Description: (§1) 10 μL of each diluted antibody was added to 100 μL of the above cell samples, mixed and incubated at room temperature for 1 hour.
Each well was washed twice with 400 μl FACS buffer. The secondary antibody of the PE anti-human IgG Fc was added and incubated for 1 hour before detection by flow cytometry.

[2] = target: T1, Human CLDN18.2, NP_001002026.1, …; experiment: cell-based or functional assay
[3] = target: T1, Human CLDN18.2, NP_001002026.1, …; experiment: flow cytometry on 293T-18.2 cells
[4] = target: T1, Human CLDN18.2, NP_001002026.1, …; experiment: flow cytometry titration on 293T-18.2 cells; remark: listed apart in the source
Description: Each well was washed twice with 400 μl FACS buffer. The secondary antibody of PE anti-mouse IgG Fc was added, and incubated for 1 hour before detection by flow cytometry.

[5] = target: T1, Human CLDN18.2, NP_001002026.1, …; experiment: flow cytometry titration on 293T-18.2 cells; remark: listed apart in the source
Description: as §1
Each well was washed twice with 400 μl FACS buffer. The secondary antibody of the PE anti-human IgG Fc (Biolegend, Cat409304) was added and incubated for 1 hour before detection by flow cytometry.

T1 sequence (chain, as listed by the source limits assumed): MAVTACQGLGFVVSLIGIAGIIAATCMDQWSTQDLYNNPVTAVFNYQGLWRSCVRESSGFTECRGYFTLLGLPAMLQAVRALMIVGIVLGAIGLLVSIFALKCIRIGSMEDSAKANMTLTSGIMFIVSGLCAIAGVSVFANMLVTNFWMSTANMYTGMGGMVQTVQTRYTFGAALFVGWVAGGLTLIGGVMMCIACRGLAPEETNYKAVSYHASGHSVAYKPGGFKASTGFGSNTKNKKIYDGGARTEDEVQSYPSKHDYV

| Binder | EC50 [1] | EC50 of ADCC [2] | EC50 strength as a multiple of control antibody MAb362 [3] | EC50 [4] | EC50 [5] |
| --- | --- | --- | --- | --- | --- |
| 7D10-1 humanized antibody (antibody, V domains shown, Cloned into the same pQKX1/pQKX2 vectors as the chimeric antibody and detected with PE anti-human IgG Fc; a human IgG1 isotype control was used in the ADCC assay; also called anti-CLDN18.2 humanized antibody) VH: QVQLVESGGGLVKPGGSLRLSCAASGFSFSSFGMHWVRQAPGKGLEWVAYISSGSRTIYYADTVKGRFTISRDNAKNSLYLQMNSLRAEDTAVYYCTRYYYGNSFDYWGQGTTVTVSS VL: DIQMTQSPSSLSASVGDRVTITCKSSQSLFNTGNQKNYLTWYQQKPGKAPKLLIYWASTRESGVPSRFSGSGSGTDFTLTISSLQPEDFATYYCQNNYNFPLTFGQGTRLEIK | 0.909 µg/mL | 180 nM | ~4 fold | – | – |
| murine anti-CLDN18.2 monoclonal antibody secreted by the hybridoma 7D10-1 (antibody, V domains shown, Murine hybridoma antibody detected with PE anti-mouse IgG Fc; also called murine anti-CLDN18.2 antibody) VH: QVQLKESGGNLVQPGGSRKLSCAASGFSFSSFGMHWVRQAPEKGLEWVAYISSGSRTIYYADTVKGRFTISRDNAKNTLFLQMTSLRSEDTAMYYCTRYYYGNSFDYWGQGTTLTVSS VL: DIVMTQAPSSLTVTTGEKVTLACKSSQSLFNTGNQKNYLTWYQQKPGQPPKLLIYWASTRESGVPDRFTGSGSGTAFTLTISSVQAEDLAVYYCQNNYNFPLTFGAGTKLELK | – | – | ~3 fold | 0.385 µg/mL | – |
| 7D10-1 chimeric antibody (antibody, human IgG1, kappa, L234A L235A, V domains shown, Murine variable regions with a human constant region; also called anti-CLDN18.2 chimeric antibody) VH: QVQLKESGGNLVQPGGSRKLSCAASGFSFSSFGMHWVRQAPEKGLEWVAYISSGSRTIYYADTVKGRFTISRDNAKNTLFLQMTSLRSEDTAMYYCTRYYYGNSFDYWGQGTTLTVSS VL: DIVMTQAPSSLTVTTGEKVTLACKSSQSLFNTGNQKNYLTWYQQKPGQPPKLLIYWASTRESGVPDRFTGSGSGTAFTLTISSVQAEDLAVYYCQNNYNFPLTFGAGTKLELKR | – | – | ~10 fold | – | 0.4 µg/mL |
